According to doi:10.1101/2021.04.06.438592, “Structural basis for how sMAC is packaged for clearance” (bioRxiv, 2021):
Values joined by “and” are separate entries in the source; they are usually repeats but may differ in a detail not shown here. Equal entries are not always repeated.

B1: clusterin (natural protein, human)
chain 1: DQTVSDNELQEMSNQGSKYVNKEIQNAVNGVKQIKTLIEKTNEERKTLLSNLEEAKKKKEDALNETRESETKLKELPGVCNETMMALWEECKPCLKQTCMKFYARVCRSGSGLVGRQLEEFLNQSSPFYFWMNGDRIDSLLENDRQQTHMLDVMQDHFSRASSIIDELFQDRFFTREPQDTYHYLPFSLPHRRPHFFFPKSRIVR
chain 2: SLMPFSPYEPLNFHAMFQPFLEMIHEAQQAMDIHFHSPAFQHPPTEFIREGDDDRTVCREIRHNSTGCLRMKDQCDKCREILSVDCSTNNPSQAKLRRELDESLQVAERLTRKYNELLKSYQWKMLNTSSLLEQLNEQFNWVSRLANLTQGEDQYYLRVTTVASHTSDSDVPSGVTEVVVKLFDSDPITVTVPVEVSRKNPKFMETVAEKALQEYRKKHREE
modifications: highly glycosylated | highly glycosylated
notes: Secreted clusterin, about 80 kDa; multiple copies in sMAC; Not modelled in the deposited structures; the clusterin core model (residues 40-124 and 256-427) is a prediction; also called apolipoprotein J; source: bought: Complement Technologies (as part of purified sMAC)
B2: complement C9 (natural protein)
chain: not shown
modifications: N-linked glycan (NAG) on Asn394
notes: One to three copies stand in sMAC, in two conformations; also called C9_(1); C9_(2); source: bought: Complement Technologies (as part of purified sMAC)

Experiments:
Details in all cases: both partners purified
[1] = target: T1, complement C8 (C8α/C8β/C8γ) (human, UniProt P07357 31-584; P07358 55-591; P07360 21-202); test: cross-linking; XL-MS of purified sMAC (0.5 mg/ml) with 1 mM DSS or 15 mM DMTMM, 30 min at RT, triplicates; LC-MS/MS, pLink
T1 construct: complement component C8 alpha chain, human; complement component C8 beta chain, human; complement component C8 gamma chain, human; Kept as one molecule; source: bought: Complement Technologies (as part of purified sMAC); copies: 1 + 1 + 1
T1 sequence (P07357 31-584, chain 1 of 3): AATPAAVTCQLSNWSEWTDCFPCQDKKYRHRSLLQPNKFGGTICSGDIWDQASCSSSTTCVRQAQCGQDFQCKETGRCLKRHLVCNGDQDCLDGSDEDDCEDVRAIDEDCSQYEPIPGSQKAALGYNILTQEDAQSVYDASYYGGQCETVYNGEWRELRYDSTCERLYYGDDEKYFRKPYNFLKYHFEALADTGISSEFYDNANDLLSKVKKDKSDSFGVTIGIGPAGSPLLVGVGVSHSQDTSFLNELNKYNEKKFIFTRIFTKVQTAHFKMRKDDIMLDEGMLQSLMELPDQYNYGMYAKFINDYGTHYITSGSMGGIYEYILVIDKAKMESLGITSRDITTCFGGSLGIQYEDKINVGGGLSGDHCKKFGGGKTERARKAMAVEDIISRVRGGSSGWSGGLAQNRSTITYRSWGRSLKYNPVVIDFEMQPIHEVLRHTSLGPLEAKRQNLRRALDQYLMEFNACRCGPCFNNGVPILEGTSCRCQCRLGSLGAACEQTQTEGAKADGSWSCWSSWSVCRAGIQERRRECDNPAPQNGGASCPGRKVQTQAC
T1 sequence (P07358 55-591, chain 2 of 3): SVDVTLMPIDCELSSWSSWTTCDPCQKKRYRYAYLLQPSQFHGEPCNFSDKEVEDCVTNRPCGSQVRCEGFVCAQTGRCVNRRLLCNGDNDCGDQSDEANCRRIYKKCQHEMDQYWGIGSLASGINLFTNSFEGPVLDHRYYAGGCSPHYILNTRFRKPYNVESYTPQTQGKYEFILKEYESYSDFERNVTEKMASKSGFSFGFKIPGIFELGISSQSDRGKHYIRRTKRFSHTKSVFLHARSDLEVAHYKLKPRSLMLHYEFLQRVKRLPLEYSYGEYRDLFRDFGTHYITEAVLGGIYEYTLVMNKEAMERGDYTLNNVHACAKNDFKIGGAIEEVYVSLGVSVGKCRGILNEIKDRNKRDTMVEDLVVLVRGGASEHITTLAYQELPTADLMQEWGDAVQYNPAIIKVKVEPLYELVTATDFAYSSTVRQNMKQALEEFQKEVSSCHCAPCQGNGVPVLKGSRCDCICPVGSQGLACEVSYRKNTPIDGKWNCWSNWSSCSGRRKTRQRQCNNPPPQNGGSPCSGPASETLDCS
T1 sequence (P07360 21-202, chain 3 of 3): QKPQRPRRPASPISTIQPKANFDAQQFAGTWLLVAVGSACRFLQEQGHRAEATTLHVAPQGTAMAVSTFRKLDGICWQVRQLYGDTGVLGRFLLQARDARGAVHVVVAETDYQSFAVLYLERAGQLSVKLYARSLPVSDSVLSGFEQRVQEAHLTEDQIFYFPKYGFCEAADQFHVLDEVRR

complement C9 = target: B2; test: as above
complement C9, sequence (P02748 22-559): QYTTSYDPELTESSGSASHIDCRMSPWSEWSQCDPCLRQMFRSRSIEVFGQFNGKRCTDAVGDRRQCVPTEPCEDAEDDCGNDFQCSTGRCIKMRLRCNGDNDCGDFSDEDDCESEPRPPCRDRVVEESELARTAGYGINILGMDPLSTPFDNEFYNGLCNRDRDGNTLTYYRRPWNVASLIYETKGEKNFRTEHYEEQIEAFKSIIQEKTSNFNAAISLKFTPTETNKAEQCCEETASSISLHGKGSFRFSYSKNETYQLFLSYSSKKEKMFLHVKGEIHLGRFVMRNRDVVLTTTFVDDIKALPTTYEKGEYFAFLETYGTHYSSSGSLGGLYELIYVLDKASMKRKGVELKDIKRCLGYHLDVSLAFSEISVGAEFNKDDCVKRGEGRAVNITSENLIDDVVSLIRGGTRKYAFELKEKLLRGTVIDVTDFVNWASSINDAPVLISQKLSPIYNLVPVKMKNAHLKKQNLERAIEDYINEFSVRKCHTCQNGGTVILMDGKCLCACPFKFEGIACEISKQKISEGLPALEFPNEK

[2] = target: T1, complement C8 (C8α/C8β/C8γ); test: cryo-EM structure; purified sMAC (Complement Technologies) at 0.065 mg/ml in 120 mM NaCl, 10 mM Hepes pH7.4; 3D classes with 1, 2 or 3 C9; focused refinements after density subtraction

Binder | binding result [1] | binding result (complement C9) | stoichiometry N [2]
B1 | binds | binds | 
B2 |  |  | 1 copies and 3 copies
